The term stoichiometry N denotes the number of molecules, sites or subunits per partner or assembly.

“And” between values parts separate entries of the source, which are not always exact repeats. Identical values can stand only once.

Experimental findings from PMC8396674 are described below.

For assay [1], the target named is gC1q domain of human otolin-1 (hOtolC1q), wild type (human). Nature of the assay: AUC; sedimentation velocity, 0.1, 0.25 and 0.5 mg/mL protein in 10 mM HEPES pH 7.0, 500 mM NaCl, 5% glycerol with 10 mM CaCl2, 20 °C, 50,000 rpm, c(s) analysis; also 0.25 mg/mL with 1 mM DTT.
Assay [2] addresses gC1q domain of human otolin-1, natural variant Q426R (human). The description is as above.
In assay [3] the target is gC1q domain of human otolin-1, natural variant R339S (human). The assay is described as above.
The target in assay [4] is gC1q domain of human otolin-1, natural variant R342W (human). The description is as above.
For assay [5] the target is unchanged. Nature of the assay: AUC; sedimentation velocity, 0.1, 0.25 and 0.5 mg/mL protein in 10 mM HEPES pH 7.0, 500 mM NaCl, 5% glycerol with 1 mM EDTA (no Ca2+), 20 °C, 50,000 rpm, c(s) analysis; also 0.25 mg/mL with 1 mM DTT.
Assay [6] concerns the target gC1q domain of human otolin-1, natural variant R402P (human). Nature of the assay: AUC; sedimentation velocity, 0.1, 0.25 and 0.5 mg/mL protein in 10 mM HEPES pH 7.0, 500 mM NaCl, 5% glycerol with 10 mM CaCl2, 20 °C, 50,000 rpm, c(s) analysis; also 0.25 mg/mL with 1 mM DTT.
Assay [7] has the same target. The assay can be described thus: AUC; sedimentation velocity, 0.1, 0.25 and 0.5 mg/mL protein in 10 mM HEPES pH 7.0, 500 mM NaCl, 5% glycerol with 1 mM EDTA (no Ca2+), 20 °C, 50,000 rpm, c(s) analysis; also 0.25 mg/mL with 1 mM DTT.

Consider “gC1q domain of human otolin-1 (hOtolC1q), wild type (domain or fragment)”, for which, in assay [1], the stoichiometry N is 3.

Turning to “gC1q domain of human otolin-1, natural variant Q426R (domain or fragment)”, the stoichiometry N in assay [2] came out at 3. For “gC1q domain of human otolin-1, natural variant R339S (domain or fragment)”, in assay [3], the stoichiometry N is 3. Regarding “gC1q domain of human otolin-1, natural variant R342W (domain or fragment)”, the stoichiometry N was 3 in assay [4]; 2 and 4 in assay [5].

With “gC1q domain of human otolin-1, natural variant R402P (domain or fragment)”, the stoichiometry N in assay [6] and in assay [7] was 2 in each case.
